Laboratory results published in US20240141061A1, “NOVEL ANTIBODY AGAINST CD55 AND USE THEREOF” (SG MEDICAL INC, priority 2021, published 2024).
Positions count from the first letter of the chain named. In names and notes the source's numbering stands. Entries after “also recorded” stand apart in the source; their conditions may differ.

Assays:
[1] = tested on: Ramos cells; experiment: CDC / apoptosis by FACS in Ramos cells with complement human serum; type: cell-based; conditions: rituximab alone, method of Example 10-1
[2] = tested on: Ramos-RR cells; experiment: CDC / apoptosis by FACS in rituximab-resistant Ramos-RR cells with complement human serum; type: cell-based; conditions: method of Example 10-1
[3] = tested on: Burkitt lymphoma BJAB cells; experiment: CDC / apoptosis by FACS (annexin V/7-AAD) in BJAB cells with complement human serum; type: cell-based; conditions: 50% complement human serum, 1 hour
Excerpt: BJAB cells have complement resistance and this is due to the expression of CD55 (Golay, et al., Blood, 95 (12):3900-8, 2000). For this reason, they show low response to rituximab the main therapeutic mechanism of which is CDC (complement-dependent cytotoxicity). In order to confirm the possibility of improving the therapeutic effect of rituximab for Burkitt lymphoma, which is known as malignant B cell lymphoma, the apoptotic ability of co-administration with EP-10H in Burkitt lymphoma BJAB cells was investigated. For investigation of the effect of co-administration, 5×10^5 BJAB cells were cultured for 1 hour under the condition of 37° C. and 5% CO2 after treating with 100 μL of RPMI supplemented with 50% complement human serum (Sigma, USA), containing 50 μg/mL of 4-1H or EP-10H and 20 μg/mL of rituximab. Then, CDC was observed by identifying apoptotic cells with Attune N×T (ThermoFisher Scientific, USA), which is a FACS analysis equipment, using an FITC annexin V apoptosis detection kit with 7-AAD (BioLegend, USA) (FIG. 4). […] It was confirmed that this effect was more significant for EP-10H having higher affinity for CD55.
The apoptotic ability of the CD20×CD55 bispecific antibody was investigated by the method of Example 10-1. […]

[4] = tested on: K562 cells; experiment: Apoptosis by FACS in K562 cells; type: cell-based; conditions: 2 μM imatinib alone, 24 hours
Experimental: (§1) Immediately thereafter, the cells were treated with 2 μM imatinib or with 2 μM imatinib and 10 μg/mL 4-1H or EP-10H diluted with 500 μL of RPMI, and then cultured under the condition of 37° C. and 5% CO2 for 24 hours. Then, apoptotic cells were analyzed with the FACS analysis equipment Attune N×T using 7-AAD and an FITC annexin V apoptosis detection kit (FIG. 6b).

[5] = tested on: K562-IR cells; experiment: Apoptosis by FACS in imatinib-resistant K562-IR cells; type: cell-based; conditions: 24 hours
Experimental: as §1

[6] = tested on: PC9 NSCLC cells; experiment: Apoptosis by FACS in PC9 NSCLC cells; type: cell-based; conditions: 5 μg/mL gefitinib alone, 24 hours
Experimental: (§2) 24 hours later, after treating with 5 μg/mL gefitinib or 5 μg/mL gefitinib and 5 μg/mL 4-1H or EP-10H diluted with 500 μL of RPMI, the cells were cultured again for 24 hours under the condition of 37° C. and 5% CO2. Then, apoptotic cells were analyzed with the FACS analysis equipment Attune N×T using 7-AAD and an FITC annexin V apoptosis detection kit (FIG. 7b).

[7] = tested on: PC9-GR cells; experiment: Apoptosis by FACS in gefitinib-resistant PC9-GR cells; type: cell-based; conditions: 24 hours
Experimental: as §2

[8] = target: T1, recombinant human CD55 (R&D Systems 2009-CD/CF) (human, UniProt P08174 35-353); experiment: indirect ELISA, recombinant human CD55 coated
T1 construct: Bought recombinant protein coated on ELISA plates; also called decay-accelerating factor; DAF
T1 sequence (looked up): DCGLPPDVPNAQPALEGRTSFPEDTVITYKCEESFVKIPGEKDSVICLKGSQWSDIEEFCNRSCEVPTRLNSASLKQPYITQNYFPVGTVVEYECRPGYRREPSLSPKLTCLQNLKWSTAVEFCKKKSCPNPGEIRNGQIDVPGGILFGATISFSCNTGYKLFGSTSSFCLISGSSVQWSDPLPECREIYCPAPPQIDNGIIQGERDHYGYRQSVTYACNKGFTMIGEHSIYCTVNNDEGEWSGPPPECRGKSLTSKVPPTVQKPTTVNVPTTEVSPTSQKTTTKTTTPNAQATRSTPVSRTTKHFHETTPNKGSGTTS

[9] = target: T2, CD55 on cells (BJAB, Ramos, Ramos-RR, K562, K562-IR, PC9, PC9-GR) (UniProt P08174 35-353, limits assumed); experiment: flow cytometry, Ramos and Ramos-RR cells stained with 10 µg/mL EP-10H and anti-human IgG Alexa Fluor 488
T2 construct: whole, on cells; Endogenous CD55 on cell lines used for flow cytometry and cell death assays; also called CD55 receptor
T2 sequence (looked up): T1 sequence (looked up)
Experimental: 5×10⁵ Ramos or Ramos-RR cells were suspended in PBS containing or not containing 10 μg/mL of the EP-10H monoclonal antibody and cultured at 4° C. for 1 hour. The culture was centrifuged at 4,000 rpm for 5 minutes and centrifuged again at 4,000 rpm for 5 minutes after washing with 100 μL of PBS. After treating the cells with goat anti-human IgG antibody diluted to 1:100 using PBS and Alexa Fluor 488 (ThermoFisher Scientific, USA), they were incubated at 4° C. for 30 minutes in the shade. The fluorescence-stained cells were washed with PBS, suspended in 400 μL of PBS and then analyzed using Attune N×T (ThermoFisher Scientific, USA), which is a FACS analysis equipment.

[10] = target: T1, recombinant human CD55 (R&D Systems …); experiment: phage ELISA, recombinant human CD55 coated, anti-M13-HRP; 4-1H phage clone as control
Experimental: 192 clones screened from the products of the third and fourth biopanning were incubated overnight at 37° C. on a 96-deep well plate after adding 100 μg/mL carbenicillin, 70 μg/mL kanamycin and VCSM13 helper phage to induce the proliferation of phages wherein the antibody was expressed. After centrifuging the culture, the supernatant containing the phage was incubated at 37° C. for 2 hours on an ELISA plate coated with recombinant human CD55 (R&D Systems 2009-CD/CF, USA). Then, the antibody binding to CD55 was identified by ELISA using HRP-conjugated anti-M13 antibody (Merck, USA) as a secondary antibody.

[11] = target: T3, recombinant human CD55 (Homo sapiens, UniProt P08174); experiment: Indirect ELISA, affinity for CD55; type: binding; conditions: full-length antibody 0.0001-10 nM on CD55 coated at 1 μg/mL
T3 construct: purchased R&D Systems 2009-CD/CF
T3 sequence (P08174 35-353): T1 sequence (looked up)
Experimental: (§3) The binding ability of the G4-1H monoclonal antibody prepared in Example 2 for CD55 was investigated by indirect ELISA. For the indirect ELISA, recombinant human CD55 (R&D Systems, USA) diluted to 1 μg/mL in 50 μL of PBS was added to a 96-well immunoplate (Corning, USA) and then adsorbed by keeping at 4° C. overnight. After incubation for 1 hour at room temperature in a buffer containing 3% bovine serum albumin (Millipore, USA), followed by washing with a buffer containing 0.5% Tween 20 (Amresco, USA) three times, 50 μL of the serially diluted antibody (0.0001, 0.0003, 0.001, 0.003, 0.01, 0.03, 0.1, 0.3, 1, 3 and 10 nM) was treated per well. After incubation at room temperature for 2 hours for antibody-antigen binding, the antibody-antigen complex was washed three times with a buffer containing 0.5% Tween 20 (Amresco, USA). After treating with 50 μL of anti-human immunoglobulin Fc-HRP antibody (Jackson Immunoresearch, USA) diluted to 1:3,000 per well, followed by incubation at room temperature for 1 hour and washing three times with a buffer containing 0.5% Tween 20 (Amresco, USA), color development was conducted for 10 minutes by adding 50 μL of 3,3′,5,5′-tetramethylbenzidine (TMB) (ThermoFisher Scientific, USA).
The affinity of the antibodies screened in Example 6 for CD55 was investigated by indirect ELISA. The indirect ELISA was conducted in the same manner as in Example 3.
The affinity of the antibodies prepared in Example 8 for CD55 was investigated by indirect ELISA. The indirect ELISA was conducted in the same manner as in Example 3. […]

[12] = target: T1, recombinant human CD55 (R&D Systems …); experiment: indirect ELISA, recombinant human CD55 coated, anti-human Fc-HRP
Experimental: as §3

## rituximab [reference compound]
[1]
  induction of apoptosis: induced apoptosis
[2]; rituximab alone
  induction of apoptosis: the induction of apoptosis in the Ramos-RR cells was lower than in the Ramos cells
[3]; 20 μg/mL rituximab alone
  response to rituximab (CDC, apoptotic cells): low response

## Cc1ccc(NC(=O)c2ccc(CN3CCN(C)CC3)cc2)cc1Nc1nccc(-c2cccnc2)n1 [Imatinib, imatinib, reference compound]
[4]
  induction of apoptosis: induced apoptosis
[5]; 2 μM imatinib alone
  induction of apoptosis: did not show the effect

## COc1cc2ncnc(Nc3ccc(F)c(Cl)c3)c2cc1OCCCN1CCOCC1 [Gefitinib, gefitinib, reference compound]
[6]
  induction of apoptosis: induced apoptosis
[7]; 5 μg/mL gefitinib alone
  induction of apoptosis: did not show the effect

B1: EP-10H (antibody, V domains shown)
VH: EVQLVESGGGLVQPGGSLRLSCAASGFTFSDRGMAWVRQAPGKGLEWVSGISSSGRYTYYAPAVKGRATISRDNSKNTLYLQMNSLRAEDTAVYYCAKNAVAGGWHAAYIDAWGQGTTVTVSS
VL: SYELTQPPSVSVSPGQTASITCSGGGGSYGWYQQKPGQSPVTVIYWNDKRPSGIPERFSGSKSGNTATLTISGTQAMDEADYYCGGWDSSTYAIFGGGTKLTVL
notes: Tested as full-length IgG; Differs from G4-1H only at the H100A site (G to V); also called EP-10H monoclonal antibody; EP-10H antibody
[8]
  binding result: binds
[9]
  binding result: binds

B2: EP-10H scFv clone displayed on phage (scFv, V domains shown)
VH: B1 VH
VL: B1 VL
notes: In the screening ELISA it stood as scFv on phage (pComb3x)
[10]
  binding result: binds

B3: EP-10H: anti-CD55 antibody different from G4-1H only at the H100A site (G to V), VL SEQ ID NO 4, VH SEQ ID NO 19 (antibody, V domains shown)
VH: B1 VH
VL: B1 VL
modifications: EP-1E_VH; G4-1H_VL
[7]; 5 μg/mL gefitinib + 5 μg/mL anti-CD55 antibody
  apoptosis on co-administration with gefitinib: apoptosis was induced; also recorded: higher apoptotic effect than the co-administration of 4-1H and gefitinib
[11]
  affinity for CD55 (indirect ELISA, absorbance at 450 nm): comparable affinity
[2]; anti-CD55 antibody + rituximab
  apoptosis by rituximab on co-administration with anti-CD55 antibody: increased apoptosis; also recorded: more significantly increased the apoptosis by rituximab as compared to the co-administration with 4-1H
[3]; 50 μg/mL anti-CD55 antibody + 20 μg/mL rituximab
  effect of rituximab (CDC, apoptotic cells) on co-administration with anti-CD55 antibody: the effect was increased; also recorded: The increase was higher for a combination of rituximab and EP-10H than a combination of rituximab and 4-1H
[5]; 2 μM imatinib + 10 μg/mL anti-CD55 antibody
  apoptosis on co-administration with imatinib: apoptosis was induced; also recorded: higher apoptotic effect than the co-administration of 4-1H and imatinib

B4: EP-1E scFv clone displayed on phage (scFv, V domains shown)
VH: B1 VH
VL: B1 VL with Y32F, D48N
notes: as for B2
[10]
  binding result: binds

B5: 10H(A) (antibody, V domains shown)
VH: B1 VH with V101A
VL: B1 VL
[11]
  affinity for CD55 (indirect ELISA, absorbance at 450 nm): lower affinity than EP-10H
[8]
  binding result: binds

B6: EP-1F scFv clone displayed on phage (scFv, V domains shown)
VH: B1 VH with V5A
VL: B1 VL
notes: as for B2
[10]
  binding result: binds

B7: G4-1H (antibody, V domains shown)
VH: B1 VH with V101G
VL: B1 VL
notes: Tested as complete antibody (full-length IgG); also called humanized 4-1H antibody; G4-1H monoclonal antibody
[12]
  binding result: binds

B8: 3R-2-1H scFv clone displayed on phage (scFv, V domains shown)
VH: B1 VH with A23V, S25R, A68T
VL: B1 VL
notes: as for B2
[10]
  binding result: binds

B9: EP-9B scFv clone displayed on phage (scFv, V domains shown)
VH: B1 VH with A35V, A40S, S85N
VL: B1 VL
notes: as for B2
[10]
  binding result: binds

B10: 10H(I) (antibody, V domains shown)
VH: B1 VH with V101I
VL: B1 VL
[11]
  affinity for CD55 (indirect ELISA, absorbance at 450 nm): lower affinity than EP-10H
[8]
  binding result: binds
